# Measurements reported in US11129879B2, “Methods for the treatment of neurological disorders and diseases using FNDC5” (Dana-Farber Cancer Institute, Inc., priority 2013, dated 2021).
# Columns and labels:
# substantia nigra = conditions: 4 mg/kg/d, harvested 2 days later, microarray, vs untreated mice; cited from earlier work
# primary cortical neurons [1] = experiment: gene expression by qPCR in cultured primary cortical neurons; type: cell-based, mouse; conditions: for Fndc5 gene expression: 1 μM; for Fndc5 gene expression / Fndc5 mRNA expression: DIV 7, vs vehicle; for Fndc5 mRNA expression: 100 ng/ml
# Experimental: (§1) Primary cortical and hippocampal neurons were isolated as described in great detail previously in Bartlett and Banker (1984) J. Neurosci. 4, 1944-1953. Briefly, cortices and hippocampi were dissected from E16-E18 embryos, dissociated with trypsin (Sigma) and DNAse (Roche), and plated on poly-L-lysine-coated (Sigma) plates. Dissociated neurons were cultured in Neurobasal Media supplemented with B27, GlutaMAX™ (Life Technologies), and Penicillin-Streptomycin (Cellgro).
# (§2) Cells or tissues were lysed and homogenized in TRIzol (Invitrogen). Total RNA was subsequently isolated using the RNeasy Mini or Micro Kit (Qiagen). First-strand cDNA was generated using the High Capacity cDNA Reverse Transcription Kit (Life Technologies), and qPCR was performed using SYBR Green Master Mix in a 7900HT Real-Time PCR system (Applied Biosystems). mRNA quantities were normalized to Rsp18 after determination by the comparative Ct method (Schmittgen and Livak (2008) Nat. Protocols 3, 1101-1108).
# Primary cortical neurons were transduced at the indicated time-points and were harvested 48 hrs later for RNA isolation. For knockdown studies, primary cortical neurons were transduced with viral supernatants from HEK293T cells transfected with pLKO.1 vector (TRC) containing the specified shRNAs at the indicated time-points.
# SH-SSY5Y neurons = experiment: Fndc5 gene expression by qPCR in SH-SSY5Y neurons; type: cell-based, human; conditions: treatment with the neurotoxin
# Experimental: The cells were differentiated with retinoic acid. Gene expression was assessed with qPCR.
# [2] = system: primary hippocampal neurons; experiment: gene expression by qPCR in cultured primary hippocampal neurons; type: cell-based, mouse
# Experimental: At the indicated days in vitro (DIV) mRNA was prepared and gene expression was assessed by qPCR. Data are shown as mRNA levels relative to Rsp18 expression, expressed as mean±SEM. *P<0.05 compared to DIV 1 control group. […] Forty-eight hours later mRNA was prepared and gene expression was assessed by qPCR. Data are shown as mRNA levels relative to Rsp18 expression, expressed as mean±SEM. *P<0.05 compared to corresponding GFP expressing control group. […] Four days later mRNA was prepared and gene expression was assessed by qPCR. Data are shown as mRNA levels relative to Rsp18 expression, expressed as mean±SEM. *P<0.05 compared to corresponding shLuc expressing control group. […] Data are shown as mRNA levels relative to Rsp18 expression, expressed as mean±SEM. *P<0.05 compared to vehicle only group. […] Four days later mRNA was prepared and gene expression was assessed by qPCR. Data are shown as mRNA levels relative to Rsp18 expression, expressed as mean±SEM. *P<0.05 compared to corresponding shLuc expressing control group. […] Data are shown as mRNA levels relative to Rsp18 expression, expressed as mean±SEM. *P<0.05 compared to vehicle only group.
# as §1
# as §2, with “Total RNA was subsequently isolated using the RNeasy Mini or Micro Kit (Qiagen).” left out
# primary cortical neurons [3] = experiment: irisin stimulation of silenced primary cortical neurons, mRNA levels of genes of interest; type: cell-based, mouse; conditions: 1 ug/mL (Enzo) at DIV7 after silencing with 1 uM TTX and 100 uM APV; time course, p<0.05 from baseline
# Experimental: Primary cortical neurons were silenced at DIV6 with 1 uM TTX and 100 uM APV overnight. The neurons were then stimulated at DIV7 using irisin (1 ug/mL; Enzo; Product No. ADI-908-307-0010). […] In a separate analysis, primary cortical neurons were silenced at DIV6 with 1 uM TTX and 10 uM MK801 overnight. […] In still a separate analysis, primary cortical neurons were silenced at DIV6 with 1 uM TTX and 100 uM APS overnight. The neurons were then stimulated at […] using irisin (1 ug/mL; Enzo; Product No. ADI-908-307-0010). […] In yet another separate analysis, primary cortical neurons were silenced at DIV7 with 1 uM TTX and 100 uM APS overnight. The neurons were then stimulated at DIV8 using 1 ug/mL of irisin from one of two vendors (i.e., either from Enzo, Product No. ADI-908-307-0010, or from Phoenix, Product No. 067-29A).
# Wild type C56/B16 mice = experiment: peripheral injections of irisin-Fc, Bdnf gene expression by qPCR; type: in vivo, mouse; conditions: 5 mg/kg i.p., RNA 10d later, vs humanFc
# Experimental: Wild type C56/B16 mice were injected with either irisinFc or humanFc (5 mg/kg) i.p. Total RNA for qPCR was harvested 10d later. Results are shown as mean+SEM, n=6, *P<0.05.
# primary cortical neurons [4] = experiment: binding of irisinFc to PFA-fixed cultured neurons, detected by secondary anti-human Fc fluorescent antibody; design: species or system mouse; conditions: PFA-fixed cultures, vs humanFc
# Experimental: PFA-fixed cultured primary cortical neurons were incubated with either irisin-Fc or humanFc as control and binding of irisinFc was detected by a secondary anti-human Fc fluorescent antibody. IrisinFc clearly binds to neurons in culture, especially given that the observed pattern of the binding and the fact that the cultures are highly enriched in neurons (>90%).
# primary cortical neurons [5] = experiment: CellTiter-Glo Luminescent Cell Viability Assay of cultured neurons; type: cell-based, mouse; conditions: treatment during in vitro culture for 7 days, relative to hFc
# Experimental: Cell viability of cultured neurons was assessed using CellTiter-Glo® Luminescent Cell Viability Assay (Promega, Madison, Wis.) according to the manufacturer's instructions. Luminescence of cell lysates was measured using the FLUOstar Omega plate reader (BMG LABTECH, Offenburg, Germany).
# [6] = system: human embryonic stem cells differentiated into motor neurons (eMN); experiment: human embryonic stem cells differentiated into motor neurons (eMN), gene expression by qPCR; type: cell-based
# Experimental: Gene expression was assessed with qPCR.
# Growth of human embryonic stem cells, differentiation of human embryonic stem cells into motor neurons, and glial co-culture were performed as described in DiGiorgio et al. (2008) Cell Stem Cell 3:637-648.
# [7] = 1 ug/ml at DIV 5 and 6, vs vehicle
# [8] = 5× concentrated conditioned media from CHO cell lines, RNA next day, vs hFc
molecule,measurement,setting,value
"CN1CC=C(c2ccccc2)CC1 [MPTP, 1-methyl-4-phenyl-1,2,3,6-tetrahydropyridine]",Fndc5 expression in substantia nigra,substantia nigra,significantly lower Fndc5 expression
"COC(=O)[C@@]1(O)C[C@H]2O[C@]1(C)n1c3ccccc3c3c4c(c5c6ccccc6n2c5c31)C(=O)NC4 [K252a, reference compound]",reduction of Fndc5 mRNA expression by BDNF,"primary cortical neurons [1]; pre-incubation with 50 nM, then BDNF 100 ng/ml overnight",This effect was abolished
"CCN(CC)c1ccc(/C=N/NC(=O)c2ccc(O)cc2)cc1 [DY131, reference compound]",Fndc5 gene expression,primary cortical neurons [1]; overnight,had no effect on Fndc5 gene expression
"IGF-1: recombinant mouse insulin-like growth factor 1, R&D Systems",Fndc5 mRNA expression,primary cortical neurons [1]; overnight,only BDNF stimulation significantly reduced
"CC(C)(Sc1ccc(CCN(CCCCC2CCCCC2)C(=O)NC2CCCCC2)cc1)C(=O)O [GW7647, reference compound]",Fndc5 gene expression,primary cortical neurons [1]; overnight,no effect on Fndc5 gene expression
C=C(C)[C@H]1Cc2c(ccc3c2O[C@@H]2COc4cc(OC)c(OC)cc4[C@@H]2C3=O)O1 [rotenone],Fndc5 gene expression,SH-SSY5Y neurons,reduces Fndc5 gene expression
"Cc1cc(SCc2sc(-c3ccc(C(F)(F)F)c(F)c3)nc2C)ccc1OCC(=O)O [GW0742, reference compound]",Fndc5 gene expression,primary cortical neurons [1]; overnight,no effect on Fndc5 gene expression
"COc1cc(/C=C(\C#N)C(=O)Nc2nnc(C(F)(F)F)s2)ccc1OCc1ccc(C(F)(F)F)cc1C(F)(F)F [XCT 790, reference compound]",Fndc5 gene expression,primary cortical neurons [1]; overnight,significantly reduced Fndc5 gene expression
"CNTF: recombinant human ciliary neurotrophic factor, Sigma (protein, UniProt P26441 1-200, looked up) Ciliary neurotrophic factor: MAFTEHSPLTPHRRDLCSRSIWLARKIRSDLTALTESYVKHQGLNKNINLDSADGMPVASTDQWSELTEAERLQENLQAYRTFHVLLARLLEDQQVHFTPTEGDFHQAIHTLLLQVAAFAYQIEELMILLEYKIPRNEADGMPINVGDGGLFEKKLWGLKVLQELSQWTVRSIHDLRFISSHQTGIPARGSHYIANNKKM",Fndc5 mRNA expression,primary cortical neurons [1]; overnight,only BDNF stimulation significantly reduced
"recombinant irisin: commercially available recombinant irisin, secreted form of FNDC5 (Phoenix Pharmaceuticals; Enzo in b292) (protein, UniProt Q8NAU1 1-191, looked up, Irisin) Irisin: MQAARGGAGRPERPGRPGRGPERERERPPGAGAASPCAAPGLPAGGATIHPGSPSAWPPRARAALRLWLGCVCFALVQADSPSAPVNVTVRHLKANSAVVSWDVLEDEVVIGFAISQQKKDVRMLRFIQEVNTTTRSCALWDLEEDTEYIVHVQAISIQGQSPASEPVLFKTPREAEKMASKNKDEVTMKE",Bdnf gene expression,[2]; [7],did not reach statistical significance
same,"gene program (Arc, cFos, Npas4, and Zif268)",[2]; [7],induced a similar gene program
same,changes in mRNA levels of genes of interest,primary cortical neurons [3],many of the analyzed genes have statistically significant changes
"NGF: recombinant mouse nerve growth factor, EMD Millipore (protein, UniProt P01139 122-241, looked up) Beta-nerve growth factor: SSTHPVFHMGEFSVCDSVSVWVGDKTTATDIKGKEVTVLAEVNINNSVFRQYFFETKCRASNPVESGCRGIDSKHWNSYCTTTHTFVKALTTDEKQAAWRFIRIDTACVCVLSRKATRRG",Fndc5 mRNA expression,primary cortical neurons [1]; overnight,only BDNF stimulation significantly reduced
"GDNF: recombinant human glial cell-derived neurotrophic factor, Sigma (protein, UniProt P39905 78-211, looked up) Glial cell line-derived …: SPDKQMAVLPRRERNRQAAAANPENSRGKGRRGQRGKNRGCVLTAIHLNVTDLGLGYETKEELIFRYCSGSCDAAETTYDKILKNLSRNRRLVSDKVGQACCRPIAFDDDLSFLDDNLVYHILRKHSAKRCGCI",Fndc5 mRNA expression,primary cortical neurons [1]; overnight,only BDNF stimulation significantly reduced
"irisinFc: Fc fusion of irisin (murine Fndc5 residues 29-140); amino acid sequence given in b228 (protein, /note=“Description of Artificial Sequence IrisinFc polypeptide”) DSPSAPVNVTVRHLKANSAVVSWDVLEDEVVIGFAISQQKKDVRMLRFIQEVNTTTRSCALWDLEEDTEYIVHVQAISIQGQSPASEPVLFKTPREAEKMASKNKDEVTMKEGGGGAGGGGVECPPCPAPPVAGPSVFLFPPKPKDTLMISRTPEVTCVVVDVSHEDPEVQFNWYVDGVEVHNAKTKPREEQFNSTFRVVSVLTVVHQDWLNGKEYKCKVSNKGLPAPIEKTISKTKGQPREPQVYTLPPSREEMTKNQVSLTCLVKGFYPSDIAVEWESNGQPENNYKTTPPMLDSDGSFFLYSKLTVDKSRWQQGNVFSCSVMHEALHNHYTQKSLSLSPGK",Bdnf expression in the cerebellum,Wild type C56/B16 mice,significant increase in Bdnf expression
same,Bdnf expression in the sciatic nerve,Wild type C56/B16 mice,significant increase in Bdnf expression
same,binding to neurons,primary cortical neurons [4],neurons bind irisinFc
same,Bdnf expression,primary cortical neurons [1]; [8],increased expression of Fndc5 and Bdnf
same,Fndc5 expression,primary cortical neurons [1]; [8],increased expression of Fndc5 and Bdnf
same,cell viability,primary cortical neurons [5],significantly increased cell viability
same,eMN synapse formation,[6],increases eMN synapse formation
same,motor neuron differentiation of eMN,[6],promotes motor neuron differentiation
"BDNF: recombinant human brain-derived neurotrophic factor, PeproTech (protein) HSDPARRGELSVCDSISEWVTAADKKTAVDMSGGTVTVLEKVPVSKGQLKQYFYETKCNPMGYTKEGCRGIDKRHWNSQCRTTQSYVRALTMDSKKRIGWRFIRIDTSCVCTLTIKRGR",Fndc5 mRNA expression,primary cortical neurons [1]; overnight,only BDNF stimulation significantly reduced Fndc5 mRNA expression
same,lowest concentration that significantly reduced Fndc5 gene expression,"primary cortical neurons [1]; overnight, 0.1-100 ng/ml tested, dose-response observed",1 ng/mL
same,Fndc5 gene expression,"[2]; 100 ng/ml, overnight, DIV 7, vs vehicle",reduced Fndc5 gene expression
